Results as given in patent US9273304B2, “Inactivation method” (Thermo Fisher Scientific Baltics UAB, priority 2006, dated 2016).

Key:
Type in all cases: biochemical
Taq DNA polymerase [1] = target: T1, Taq DNA polymerase (Thermus aquaticus, UniProt P19821); test: Polymerase activity assay: incorporation of [3H]-dTTP into the polynucleotide adsorbed on DE-81 in 30 min at 70° C.; conditions: for Activity at 70° C. (%) After 10 min. preheating at 95° C. / Activity at 70° C. (%) Without preheating at 95° C.: aqueous solution
T1 sequence (P19821 whole entry): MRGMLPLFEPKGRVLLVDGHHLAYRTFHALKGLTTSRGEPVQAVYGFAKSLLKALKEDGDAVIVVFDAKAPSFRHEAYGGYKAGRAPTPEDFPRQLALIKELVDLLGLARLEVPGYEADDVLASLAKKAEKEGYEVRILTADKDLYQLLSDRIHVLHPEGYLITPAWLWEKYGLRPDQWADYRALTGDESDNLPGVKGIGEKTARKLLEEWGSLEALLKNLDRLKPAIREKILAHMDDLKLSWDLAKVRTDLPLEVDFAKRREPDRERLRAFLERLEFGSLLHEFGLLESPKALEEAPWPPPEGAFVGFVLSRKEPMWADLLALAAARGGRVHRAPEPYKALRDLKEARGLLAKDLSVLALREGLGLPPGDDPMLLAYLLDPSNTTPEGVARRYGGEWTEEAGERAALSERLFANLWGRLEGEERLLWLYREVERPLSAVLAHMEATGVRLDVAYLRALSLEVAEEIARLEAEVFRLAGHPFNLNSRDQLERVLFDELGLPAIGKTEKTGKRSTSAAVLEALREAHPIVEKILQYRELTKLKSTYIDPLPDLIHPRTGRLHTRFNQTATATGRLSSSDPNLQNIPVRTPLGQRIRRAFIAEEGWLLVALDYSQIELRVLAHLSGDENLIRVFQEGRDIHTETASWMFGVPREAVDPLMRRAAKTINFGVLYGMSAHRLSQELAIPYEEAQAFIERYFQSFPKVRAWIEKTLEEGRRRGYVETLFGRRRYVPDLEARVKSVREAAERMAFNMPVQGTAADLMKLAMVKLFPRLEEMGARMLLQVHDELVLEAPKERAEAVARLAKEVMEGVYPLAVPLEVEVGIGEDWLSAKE
Experimental: The measure of the enzyme activity was incorporation of [^3H]-dTTP into polynucleotide fraction. One unit of polymerase activity is defined as the enzyme amount which incorporates 10 nmoles of deoxyribonucleotides into the polynucleotide adsorbed on DE-81 in 30 min at 70° C.
For activity assays, Taq DNA polymerase was diluted up to 4 u/ml with the dilution buffer of the following composition: 20 mM Tris-HCl (pH 8.8 at 25° C.), 1 mM EDTA, 1 mM DTT, and BSA (0.1 mg/ml). Reactions were carried out at 70° C. for 30 min with 5 μl of the diluted enzyme in 50 μl of the reaction buffer of the following composition: 67 mM Tris-HCl (pH 8.8 at 25° C.), 50 mM NaCl, 6.7 mM MgCl2, 1 mM DTT, and BSA (0.1 mg/ml). The reaction buffer was supplemented with 0.2 mM dNTP, [3H]-dTTP (0.4 MBq/ml) and 0.75 mM activated DNA from calf thymus.
Activity of the modified enzymes was measured either with the pre-incubation step, or without it, for 10 min at 95° C. in the pre-heating buffer of the following composition: 20 mM Tris-HCl (pH 8.25 at 25° C.), 100 mM KCl, 2 mM MgCl2, 0.5% Tween 20, 0.5% Nonidet P40, and 16% glycerol.
Aliquots (35 μl) of the enzyme solution were mixed with 2.25 μl aliquots of the N-ethoxycarbonyl-2,3-dimethylmaleinimide solutions described above resulting in the following molar ratios of Taq DNA polymerase to N-ethoxycarbonyl-2,3-dimethylmaleinimide: 1/1280 1/640, 1/320, 1/160, 1/110, 1/80, 1/40. The mixtures were incubated for 20 hours at 4° C. to modify the Taq DNA polymerase. Control samples, in which the enzyme was left unmodified (e.g., the ratio was 1/0), were obtained by mixing the Taq DNA polymerase with a 2.25 μl aliquot of DMF. These control samples were incubated under the same conditions as the modified ones.
The samples of the unmodified Taq DNA polymerase and the modified Taq DNA polymerases were diluted 250-fold in the pre-heating buffer (see Example 2) and activities of the modified enzyme were measured both before heat-reactivation and after it, as described in the Example 2. Activities of both inactivated and heat-reactivated DNA polymerases were determined as described in the Example 2, and the data were normalized to activity of the unmodified Taq DNA polymerase
Aliquots (20.6 μl) of the diluted enzyme solution were mixed with 1 μl of N-isobutoxycarbonyl-2,3-dimethylmaleinimide solutions described above resulting in different molar ratios of Taq DNA polymerase to N-isobutoxycarbonyl-2,3-dimethylmaleinimide (1/320, 1/160, 1/80 and 1/40). The mixtures were incubated 20 hours at 4° C. to modify the Taq DNA polymerase. Control samples, in which the enzyme was left unmodified (e.g., the ratio was 1/0), were obtained by mixing the Taq DNA polymerase with a 1 μl aliquot of DMF. These control samples were incubated under the same conditions as the modified ones. The heat-reactivation of the modified enzymes was performed as described in the Example 3.

Taq DNA polymerase [2] = target: T1, Taq DNA polymerase; test: Reactivation of the modified Taq DNA polymerase by pre-incubation, activity measured at 50° C.
Experimental: The activity of modified Taq DNA polymerase was assayed as described in the Example 2. The enzyme was pre-incubated at different temperatures in the pre-heating buffer (see Example 2), its activity was measured at 50° C. in the reaction buffer of the following composition: 50 mM Tris (pH 8.4 at 25° C.), 10 mM KCl, 5 mM (NH4)2SO4 and 2 mM MgCl2. The activity of the modified DNA polymerase was normalized the activity of the unmodified one.

Taq DNA polymerase [3] = target: T1, Taq DNA polymerase; test: Activity in PCR measured by incorporation of [3H]-dTTP into the PCR product (pH and Mg2+ effect)
Experimental: Activity of Taq DNA polymerase modified with N-ethoxycarbonyl-N-2,3-dimethylmaleinimide at different pH during was measured by incorporation [^3H]-dTTP nucleotide into the PCR product.
Sets of PCR were carried out at the following pH values determined at 25° C.: 8.2, 8.3, 8.4, 8.5, 8.6, 8.7, and 8.8. The reactions were preformed in the GeneAmp® PCR System 9700 (Applied Biosystems) using 1.25 units of the modified enzymes in aliquots ([…] of the reaction buffer of the following composition: 20 mM Tris-HCl (pH values indicated above), 20 mM KCl, 5 mM (NH4)SO4, 1.5 mM MgCl2 supplemented with 0.2 mM dNTP, 0.8 MBq/ml [^3H]-dTTP, 0.5 […] of both PCR primers ([SEQ ID NO: 1] 5′-[…]-3′ and [SEQ ID NO: 2] 5′-[…]-3′), and human DNA (10 ng/50 μl).
Thermal cycling profile was the following: 95° C.—4 min; (95° C.—0.5 min, 50° C.—0.5 min, 72° C.—1 min)—30 cycles; 72° C.—7 min.
Activity of the modified DNA polymerase in PCR was determined as described in the Example 8. A set of PCR reactions was carried out in the reaction buffer (see Example 7) supplemented with the following Mg^2+ concentrations: 1 mM, 1.5 mM, 2 mM, 2.5 mM, 3 mM, 3.5 mM, 4 mM, 5 mM, 6 mM, 7 mM, and 8 mM.

[4] = molar ratio Taq DNA polymerase/N-etoxycarbonyl-2,3-dimethylmaleinimide 1/80
[5] = molar ratio Taq DNA polymerase/N-etoxycarbonyl-2,3-dimethylmaleinimide 1/110
[6] = molar ratio Taq DNA polymerase/N-etoxycarbonyl-2,3-dimethylmaleinimide 1/160
[7] = molar ratio Taq DNA polymerase/N-etoxycarbonyl-2,3-dimethylmaleinimide 1/320
[8] = molar ratio Taq DNA polymerase/N-etoxycarbonyl-2,3-dimethylmaleinimide 1/640
[9] = molar ratio Taq DNA polymerase/N-etoxycarbonyl-2,3-dimethylmaleinimide 1/1280

Taq DNA polymerase modified with N-etoxycarbonyl-2,3-dimethylmaleinimide: Recombinant Taq DNA polymerase reversibly inactivated by reaction with N-ethoxycarbonyl-2,3-dimethylmaleinimide in aqueous solution (preferred molar ratio 1/110)
restoration of the enzyme activity after incubation for 10 min at 94° C. (Taq DNA polymerase [1]; incubation 10 min at 94° C.): almost in the complete restoration of the enzyme activity
Activity at 70° C. (%) After 10 min. preheating at 95° C. (Taq DNA polymerase [1]; molar ratio Taq DNA polymerase/N-etoxycarbonyl-2,3-dimethylmaleinimide 1/40): ~100%
Activity at 70° C. (%) Without preheating at 95° C. (Taq DNA polymerase [1]; molar ratio Taq DNA polymerase/N-etoxycarbonyl-2,3-dimethylmaleinimide 1/40, normalized to unmodified enzyme): ~30%
Activity at 70° C. (%) After 10 min. preheating at 95° C. (Taq DNA polymerase [1]; [4]): ~90%
Activity at 70° C. (%) Without preheating at 95° C. (Taq DNA polymerase [1]; [4]): ~20%
Activity at 70° C. (%) After 10 min. preheating at 95° C. (Taq DNA polymerase [1]; [5]): ~100%
Activity at 70° C. (%) Without preheating at 95° C. (Taq DNA polymerase [1]; [5]): ~20%
Activity at 70° C. (%) After 10 min. preheating at 95° C. (Taq DNA polymerase [1]; [6]): ~90%
Activity at 70° C. (%) Without preheating at 95° C. (Taq DNA polymerase [1]; [6]): ~20%
Activity at 70° C. (%) After 10 min. preheating at 95° C. (Taq DNA polymerase [1]; [7]): ~90%
Activity at 70° C. (%) Without preheating at 95° C. (Taq DNA polymerase [1]; [7]): ~30%
Activity at 70° C. (%) After 10 min. preheating at 95° C. (Taq DNA polymerase [1]; [8]): ~50%
Activity at 70° C. (%) Without preheating at 95° C. (Taq DNA polymerase [1]; [8]): ~40%
Activity at 70° C. (%) After 10 min. preheating at 95° C. (Taq DNA polymerase [1]; [9]): ~80%
Activity at 70° C. (%) Without preheating at 95° C. (Taq DNA polymerase [1]; [9]): ~90%
specific activity retained at 70° C. temperature without preheating (Taq DNA polymerase [1]; several independent experiments, preferred modification (N-ethoxycarbonyl-2,3-dimethylmaleinimide, aqueous, 1/110)): 21±6%
Activity at 50° C. (%) (Taq DNA polymerase [2]; incubation time at 95° C. 0 min): ~0%
Activity at 50° C. (%) (Taq DNA polymerase [2]; incubation time at 95° C. 0.5 min, listed as modified Taq DNA polymerase): ~60%
Activity at 50° C. (%) (Taq DNA polymerase [2]; incubation time at 95° C. 0.5 min, listed as modified enzyme): ~60%
Activity at 50° C. (%) (Taq DNA polymerase [2]; incubation time at 95° C. 1 min, listed as modified Taq DNA polymerase): ~90%
Activity at 50° C. (%) (Taq DNA polymerase [2]; incubation time at 95° C. 1 min, listed as modified enzyme): ~90%
Activity at 50° C. (%) (Taq DNA polymerase [2]; incubation time at 95° C. 1.5 min): ~90%
Activity at 50° C. (%) (Taq DNA polymerase [2]; incubation time at 95° C. 2.0 min): ~100%
Activity at 50° C. (%) (Taq DNA polymerase [2]; incubation time at 95° C. 3.0 min): ~100%
reactivation by preheating at 90° C. (Taq DNA polymerase [2]; preheated at 90° C. for several minutes, FIG. 8): regained full activity
activity within the 1.5-5.0 mM range of Mg2+ concentrations (Taq DNA polymerase [3]; 1.5-5.0 mM Mg2+): ≥ 70%
Activity at 70° C. (%) (Taq DNA polymerase [3]; [Mg2+] 1 mM, incorporation of [3H]-dTTP into the PCR product): ~0%
Activity at 70° C. (%) (Taq DNA polymerase [3]; [Mg2+] 1.5 mM): ~70%
Activity at 70° C. (%) (Taq DNA polymerase [3]; [Mg2+] 2.0 mM): ~70%
Activity at 70° C. (%) (Taq DNA polymerase [3]; [Mg2+] 2.5 mM): ~100%
Activity at 70° C. (%) (Taq DNA polymerase [3]; [Mg2+] 3.0 mM): ~100%
Activity at 70° C. (%) (Taq DNA polymerase [3]; [Mg2+] 3.5 mM): ~100%
Activity at 70° C. (%) (Taq DNA polymerase [3]; [Mg2+] 4.0 mM): ~90%
Activity at 70° C. (%) (Taq DNA polymerase [3]; [Mg2+] 5.0 mM): ~70%
Activity at 70° C. (%) (Taq DNA polymerase [3]; [Mg2+] 6.0 mM): ~30%
Activity at 70° C. (%) (Taq DNA polymerase [3]; [Mg2+] 7.0 mM): ~20%
Activity at 70° C. (%) (Taq DNA polymerase [3]; [Mg2+] 8.0 mM): ~10%
Activity at 70° C. (%) (Taq DNA polymerase [3]; ambient pH 8.2, incorporation of [3H]-dTTP into the PCR product): ~30%
Activity at 70° C. (%) (Taq DNA polymerase [3]; ambient pH 8.3): ~80%
Activity at 70° C. (%) (Taq DNA polymerase [3]; ambient pH 8.4): ~100%
Activity at 70° C. (%) (Taq DNA polymerase [3]; ambient pH 8.5): ~100%
Activity at 70° C. (%) (Taq DNA polymerase [3]; ambient pH 8.6): ~100%
Activity at 70° C. (%) (Taq DNA polymerase [3]; ambient pH 8.7): ~100%
Activity at 70° C. (%) (Taq DNA polymerase [3]; ambient pH 8.8): ~60%
activity within the pH 8.3-8.7 range (Taq DNA polymerase [3]; pH 8.3-8.7): ≥ 80%
